Results as given in patent US20180179283A1 (ADICET BIO, published 2018).

What was measured:
[1] = target: HLA-A2/MART1(26) control peptide on T2 cells (human); assay: FACS, T2 + MART1 peptide
[2] = target: T1, HLA-A2/P68 peptide on T2 cells; assay: FACS, T2 + P68 peptide
T1 construct: also called p68-DDX5

[3] = target: HLA-A2/MAGE-A4-A4 peptide on T2 cells (human); assay: FACS (MFI) vs native peptide, Ala-mutant peptide on T2 cells
[4] = target: HLA-A2/MAGE-A4-A2 peptide on T2 cells (human); assay: as above
[5] = target: HLA-A2/MAGE-A4-A7 peptide on T2 cells (human); assay: as above
[6] = target: HLA-A2/MAGE-A4-A6 peptide on T2 cells (human); assay: as above
[7] = target: HLA-A2/MAGE-A4-A5 peptide on T2 cells (human); assay: as above

Row | Binder | binding result [1] | binding result [2] | % decrease in binding [3] | % decrease in binding [4] | % decrease in binding [5] | % decrease in binding [6] | % decrease in binding [7]
1 | 906-11-D11 TCR-like antibody (antibody, mouse IgG1, kappa, V domains shown, also called Tyr D11) VH: not shown VL: DIQMTQSPSSLSASLGGKVTITCKASQDIHNYIAWYQHKPVKGPRLLIHYTSTLQPGTPSRFSGSGSGRDYSFSISNLEPEDIATYYCLQYDNLWTFGGGTKLEIKR | no binding | no binding |  |  |  |  | 
2 | C106B9 TCR-like antibody (antibody, mouse IgG1, kappa, V domains shown, also called MAGE-A4 C106B9) VH: QVQLQQSGGEVMKPGASVKLSCKATGYTFTGYWIEWIKQRPGHGLEWIGEILPGSGGTNYNEKFKGKATFTAHTSSNTAYMQLSSLTTEDSAIYYCARDSNSFTYWGQGTLVTVSS VL: QIVLTQSPAIMSASPGEKVTITCSVSSSVDYIHWFQQKPGTSPKFWIYSTSILASGVPARFSGSGSGTSYSLTISRMEAEDAATYYCQQRSSYPPTFGSGTKLEIKR |  |  | 90% | 33% | 90% | 90% | 90%
3 | 905-2-D7 TCR-like antibody (antibody, mouse IgG1, kappa, V domains shown, also called Tyr D7) VH: QVQLKESGPGLVAPSQSLSITCTVSGFSLTSYGVHWVRQPPGKGLEWLGVIWAGGTTNYNSALMSRLSISRDNSKSQVFLEMNSLQTDDTAIYYCARDGHFHFDFWGQGTTLTVSS VL: DIQMTQSPASLSVSVGETVTITCRASDIIYSNLAWYQQKQGKSPQLLVYAATNLAAGVPSRFSGSGSGTQYSLKINSLQSEDFGTYYCQHFWGSSISFGSGTKLEIKR | no binding | no binding |  |  |  |  | 
